These are literature values, as cited in publication PMC8470622.

The term Kd denotes the free concentration of one partner at which half of the binding sites on the other are occupied at equilibrium, for simple one-to-one binding.

Data set [1] addresses EGFR (Homo sapiens) (UniProt P00533).
The target is the same in data set [2]. The experiment in a line: radioligand.
In data set [3] the target is EGFR (high-affinity state) (Homo sapiens) (UniProt P00533). The data set is described as follows: radioligand.
Data set [4] concerns the target EGFR (low-affinity state) (Homo sapiens) (UniProt P00533). The data set is described as follows: radioligand.

“And” between values parts separate entries of the source, which are not always exact repeats. Equal values may be shown once. Read-outs that look alike come from different tables or passages of the source.

Turning to EGF (from UniProt P01133), the Kd in data set [1] was 0.3 nM and 0.32 nM; in data set [2] it was 1.52 nM; in data set [3] it was 1.06 nM; in data set [4], 2.85 nM.
